Measurements: patent US20180186877A1, “METHOD FOR SUPPRESSING BLOOD COAGULATION REACTION FOR WHICH LOX-1 IS RESPONSIBLE” (NATIONAL CEREBRAL AND CARDIOVASCULAR CENTER, priority 2013, published 2018)

Target: LOX-1 (immobilised on the ELISA plate in Examples 3 to 6; recombinant LOX-1 protein immobilised in the test tube in Example 8) (UniProt P78380)
Test: ELISA, LOX-1 immobilised at 5 ug/mL, recombinant A2 domain 0-10 ug/mL, anti-V5 detection

Sequence of Recombinant A2 domain of the H chain of FV (NM000130.4, aa 317-656, V5-6xHis; Igk secretion signal) (P12259 345-684 limits assumed, form in doubt): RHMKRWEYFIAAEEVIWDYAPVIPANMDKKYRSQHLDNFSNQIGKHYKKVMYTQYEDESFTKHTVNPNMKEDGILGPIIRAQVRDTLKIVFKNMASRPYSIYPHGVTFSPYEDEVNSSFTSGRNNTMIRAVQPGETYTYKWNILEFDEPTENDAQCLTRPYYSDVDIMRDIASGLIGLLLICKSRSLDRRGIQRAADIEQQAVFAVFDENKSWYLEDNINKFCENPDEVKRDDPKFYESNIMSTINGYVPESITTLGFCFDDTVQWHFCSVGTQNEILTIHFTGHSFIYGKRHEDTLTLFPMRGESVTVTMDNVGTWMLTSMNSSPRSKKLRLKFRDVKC

Recombinant A2 domain of the H chain of FV (NM000130.4, aa 317-656, V5-6xHis; Igk secretion signal) (from UniProt P12259 345-684)
EC50 (read off the curve): 1 µg/mL
